Changes are numbered by the printed parent chain.
B1: Variant 14019 (antibody, name in Kabat numbering, V domains shown)
VH: EVQLVESGGGLVQPGGSLRLSCAASGFTFQDYTMDWVRQAPGKGLEWVGDVNPNSGGSIYNQRFKGRFTFSVDRSWNTLYLQMNSLRAEDTAVYYCARNLGPSFYFDYWGQGTLVTVSS
VL: DIQMTQSPSSLSASVGDRVTITCKASQDVSIGVAWYQQKPGKAPKLLIYSASYRYTGVPSRFSGSGSGTDFTLTISSLQPEDFATYYCQQYYIYPYTFGQGTKVEIKR
notes: also called v14019
B2: Variant 14020 (antibody, name in Kabat numbering, V domains shown)
VH: B1 VH with W76K, S103W
VL: B1 VL
notes: also called v14020
B3: Variant 14018 (antibody, name in Kabat numbering, V domains shown)
VH: B1 VH with Q30T
VL: B1 VL with Y49W
notes: also called v14018

Experiments:
[1] = target: T1, HER2 expressed on the surface of cells (human, UniProt P04626 23-1255); test: cell-based or functional assay
[2] = target: T1, HER2 expressed on the surface of cells; test: cell-based or functional assay; remark: listed apart in the source
[3] = target: T1, HER2 expressed on the surface of cells; test: cell-based or functional assay; remark: listed apart in the source
[4] = target: T1, HER2 expressed on the surface of cells; test: cell-based or functional assay; remark: listed apart in the source
[5] = target: T1, HER2 expressed on the surface of cells; test: cell-based or functional assay; remark: listed apart in the source
[6] = target: T1, HER2 expressed on the surface of cells; test: flow cytometry on BT474 cells, n=1
Protocol: (§1) Binding of the test antigen-binding constructs to the surface of HER2+ cells was determined by flow cytometry. Cells were washed with PBS and resuspended in DMEM at 1×10⁵ cells/100 μl. 100 μl cell suspension was added into each microcentrifuge tube, followed by 10 μl/tube of the antigen-binding constructs. The tubes were incubated for 2 hr at 4° C. on a rotator. The microcentrifuge tubes were centrifuged for 2 min 2000 RPM at room temperature and the cell pellets washed with 500 μl media. Each cell pellet was resuspended in 100 μl of fluorochrome-labelled secondary antibody diluted in media to 2 μg/sample. The samples were then incubated for lhr at 4° C. on a rotator. After incubation, the cells were centrifuged for 2 min at 2000 rpm and washed in media. The cells were resuspended in 500 μl media, filtered, transferred to a tube containing 5 μl propidium iodide (PI) and analyzed on a BD LSR II flow cytometer according to the manufacturer's instructions. The B50 of the tested antigen-binding constructs was assessed by FACS with data analysis and curve fitting performed in GraphPad Prism. The experiment was carried out once (n=1) in SKBr3 cells, and twice (n=2) in SKOV3, MCF7, and BT-474 cells.
(§2) The experiment was performed once (n=1) in each cell line.

[7] = target: T1, HER2 expressed on the surface of cells; test: flow cytometry on SKBR3 cells, n=1
Protocol: as §1, §2

[8] = target: T1, HER2 expressed on the surface of cells; test: flow cytometry on MCF7 cells (low HER2), n=1
Protocol: as §1, §2

[9] = target: T1, HER2 expressed on the surface of cells; test: flow cytometry on BT474 cells, n=1; B50 = concentration at 50% of Bmax
Protocol: as §1, §2

[10] = target: T1, HER2 expressed on the surface of cells; test: flow cytometry on SKBR3 cells, n=1; B50 = concentration at 50% of Bmax
Protocol: as §1, §2

[11] = target: T1, HER2 expressed on the surface of cells; test: flow cytometry on MCF7 cells (low HER2), n=1; B50 = concentration at 50% of Bmax
Protocol: as §1, §2

| Binder | growth inhibition IC50 (potency), SKBR3 cells [1] [nM] | growth inhibition span (percentage of cells killed), SKBR3 cells [1] [%] | growth inhibition span ratio to WT, SKBR3 cells [1] [fold] | growth inhibition IC50 (potency), BT474 cells [2] [nM] | growth inhibition span (percentage of cells killed), BT474 cells [2] [%] | growth inhibition span ratio to WT, BT474 cells [2] [fold] | growth inhibition IC50 (potency), BT474 cells + EGF [3] [nM] | growth inhibition span (percentage of cells killed), BT474 cells + EGF [3] [%] | growth inhibition span ratio to WT, BT474 cells + EGF [3] [fold] | growth inhibition IC50 (potency), NCI-N87 cells, 5 days [4] [nM] | growth inhibition span (percentage of cells killed), NCI-N87 cells [4] [%] | increase in efficacy with respect to the WT, NCI-N87 cells [4] [fold] | increase in potency with respect to the WT, NCI-N87 cells [4] [fold] | growth inhibition span (percentage of cells killed), MDA-MB-175 cells [5] [%] | Bmax [6] [MFI] | Bmax [7] [MFI] | Bmax [8] [MFI] | B50 [9] [nM] | B50 [10] [nM] | B50 [11] [nM] |
| --- | --- | --- | --- | --- | --- | --- | --- | --- | --- | --- | --- | --- | --- | --- | --- | --- | --- | --- | --- | --- |
| B1 | 0.25 | 25 | 1.5 | 0.51 | 32 | 3 | 1.1 | 33 | 1.8 | 4.1 | 37 | 2.2 | 2.2 | 85 | 23000 | 29000 | 670 | 2.9 | 14 | 1.4 |
| B2 | 0.17 | 26 | 1.6 | 0.55 | 27 | 2.6 | 1.7 | 37 | 2 | 3.5 | 55 | 3.2 | 2.6 | 80 | 22000 | 33000 | 640 | 4.1 | 21 | 2.6 |
| B3 | 0.28 | 29 | 1.7 | 0.66 | 30 | 2.8 | 1.7 | 33 | 1.8 | 2.1 | 32 | 1.9 | 4.3 | 85 | 22000 | 32000 | 680 | 2.4 | 8.4 | 0.9 |
